Measurements: article PMC7970865 (Scientific Reports, 2021)

T1: NPDP19 peptide (Plasmodium falciparum CSP junction, …)
T1 construct: also called peptide NPDP-19
T1 chain: KQPADGNPDPNANPNVDPN

T2: peptide 21 (Plasmodium falciparum CSP junction, …)
T2 construct: also called NP-DPNA-NPNV-DPNA-N
T2 chain: NPDPNANPNVDPNAN

B1: mAb 311 (antibody, V domains shown)
VH: QVQLVESGGGVVPPGRSLRLSCATSGFTFSNYGMHWVRQAPGKGLEWVAIIWYDGSRNFYAASVEGRFTISRDNSKNTLYLQMNSLRVEDTAVYYCARAAYYDTSGYGDYWGQGTLVTVSS
VL: QSVLTQPPSVSGAPGQTVTISCTGGSSNIGAGYDVHWYQQLPGTAPKLLIYGNINRPSGVPDRFSGSKSGTSASLAITGLQAEDEADYYCQSYDRRLSGSWVFGGGTKLTVL
B2: mAb CIS43 (antibody, V domains shown)
VH: QVQLVQSGAEVKKPGASVKVSCKASGYTFTSYAIHWVRQAPGQRLEWMGWIKAGNGNTRYSQKFQDRVTITRDTSTTTAYMELSSLRSEDTAVYYCALLTVLTPDDAFDIWGQGTMVTVSS
VL: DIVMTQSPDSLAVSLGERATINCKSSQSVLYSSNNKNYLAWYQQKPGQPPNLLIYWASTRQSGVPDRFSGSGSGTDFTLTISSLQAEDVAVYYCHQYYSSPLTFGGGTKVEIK
B3: mAb MGG4 (antibody, V domains shown)
VH: QVQLVESGGGVVQPGRSLRLSCAASGFRFSDYGMHWVRQAPGKGLEWVALIWYDGSNESYLDSVKGRFTISRDNSKNTLYLQMNNLRTEDTAVYYCAKLLVGITTDVFDVWGQGTVVTVSS
VL: DIVMTQSPDSLAVSLGERATINCRSSQSVLSSSNNKNYLAWYQHKPRQPPKLLIYWASTRESGVPDRFSGSGSGTDFTLTISSLQAEDVAVYYCQQYYTASPFFGGGTKVEIK
B4: mAb 663 (antibody, V domains shown)
VH: EVQLLESGGGLEQPGGSLRLSCVVSGFTFSNYAFNWVRQAPGKGLEWVAIIYRSGSRMYHADSVKGRFTISRDDSKNTLFLQMNNLRAEDTAVYYCTTLLIYESDVGVDFWGQGTLVTVSS
VL: DIVMTQSPLSLPVSPGEPASISCRSTQSLIFGEHNYLDWYLQKPGQSPQLLIYLASNRASGVPDRFSGSGSGTYFTLKISRVEAEDFGVYYCVQTVQVPYTFGQGTKLEIK
B5: mAb 317 (antibody, V domains shown)
VH: QMQLVESGGGVVQPGRSLRLSCTASGFTFSTYAMHWVRQSPGQGLQWVAVISYHSTNKYYEDSVRGRFTISRDNSKNTLYLQMNSLRAEDTAVYYCARDGYSSSFFDFWGQGTLVTVSS
VL: DIQMTQSPSTLSASVGDRVAITCRASQSISRWLAWYQQQPGKAPKLLMSGASVLESGVPSRFSGSGSGTEFTLTISSLQPDDFATYYCQHYNSYFVTFGQGTKVEIK
B6: Fab 311 (Fab, V domains shown)
VH: QVQLVESGGGVVPPGRSLRLSCATSGFTFSNYGMHWVRQAPGKGLEWVAIIWYDGSRNFYAASVEGRFTISRDNSKNTLYLQMNSLRVEDTAVYYCARAAYYDTSGYGDYWGQGTLVTVSS
VL: QSVLTQPPSVSGAPGQTVTISCTGGSSNIGAGYDVHWYQQLPGTAPKLLIYGNINRPSGVPDRFSGSKSGTSASLAITGLQAEDEADYYCQSYDRRLSGSWVFGGGTKLTVL
B7: Fab 317 (Fab, V domains shown)
VH: QMQLVESGGGVVQPGRSLRLSCTASGFTFSTYAMHWVRQSPGQGLQWVAVISYHSTNKYYEDSVRGRFTISRDNSKNTLYLQMNSLRAEDTAVYYCARDGYSSSFFDFWGQGTLVTVSS
VL: DIQMTQSPSTLSASVGDRVAITCRASQSISRWLAWYQQQPGKAPKLLMSGASVLESGVPSRFSGSGSGTEFTLTISSLQPDDFATYYCQHYNSYFVTFGQGTKVEIK
B8: Fab CIS43 (Fab, V domains shown)
VH: QVQLVQSGAEVKKPGASVKVSCKASGYTFTSYAIHWVRQAPGQRLEWMGWIKAGNGNTRYSQKFQDRVTITRDTSTTTAYMELSSLRSEDTAVYYCALLTVLTPDDAFDIWGQGTMVTVSS
VL: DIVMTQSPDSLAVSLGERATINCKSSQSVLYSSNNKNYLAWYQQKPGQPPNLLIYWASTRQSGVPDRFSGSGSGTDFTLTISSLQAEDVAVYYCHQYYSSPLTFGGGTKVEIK
B9: Fab MGG4 (Fab, V domains shown)
VH: QVQLVESGGGVVQPGRSLRLSCAASGFRFSDYGMHWVRQAPGKGLEWVALIWYDGSNESYLDSVKGRFTISRDNSKNTLYLQMNNLRTEDTAVYYCAKLLVGITTDVFDVWGQGTVVTVSS
VL: DIVMTQSPDSLAVSLGERATINCRSSQSVLSSSNNKNYLAWYQHKPRQPPKLLIYWASTRESGVPDRFSGSGSGTDFTLTISSLQAEDVAVYYCQQYYTASPFFGGGTKVEIK
notes: also called MGG4 Fab
B10: Fab 663 (Fab, V domains shown)
VH: EVQLLESGGGLEQPGGSLRLSCVVSGFTFSNYAFNWVRQAPGKGLEWVAIIYRSGSRMYHADSVKGRFTISRDDSKNTLFLQMNNLRAEDTAVYYCTTLLIYESDVGVDFWGQGTLVTVSS
VL: DIVMTQSPLSLPVSPGEPASISCRSTQSLIFGEHNYLDWYLQKPGQSPQLLIYLASNRASGVPDRFSGSGSGTYFTLKISRVEAEDFGVYYCVQTVQVPYTFGQGTKLEIK

How the values were obtained:
NANPx6 peptide = target: T3, NANPx6 peptide (Plasmodium falciparum CSP repeat, …); experiment: ELISA; settings: both partners purified
T3 construct: also called NANP6; short repeat peptide

NPDP19 peptide = target: T1, NPDP19 peptide; experiment: ELISA; settings: both partners purified
[1] = target: T4, P. falciparum CSP on transgenic P. berghei sporozoites (Plasmodium falciparum, gene strain not …, UniProt Q7K740); experiment: ELISA; settings: one partner purified
T4 construct: also called transgenic P. berghei sporozoites carrying the P. falciparum CSP gene; transgenic P. berghei-falciparum sporozoites

[2] = target: P. falciparum sporozoite CSP (Plasmodium falciparum NF54, UniProt P19597); experiment: cell-based or functional assay
peptide 21 = target: T2, peptide 21; experiment: ELISA; settings: both partners purified
biotinylated NANPx6 = target: T5, biotinylated NANPx6 (Plasmodium falciparum CSP repeat, …); experiment: BLI; Octet RED96; biotinylated FL-CSP or biotinylated NANPx6 on streptavidin biosensors, Fab in solution, kinetics buffer; global fit to 1:1 Langmuir model; settings: both partners purified
T5 construct: also called NANPx6 peptide; NANPx6 target antigen

Binder	ng/ml mAb needed for OD = 1 (NANPx6 peptide)	binding result (NPDP19 peptide)	binding result [1]	other [2]	binding result (peptide 21)	Kd (biotinylated NANPx6)	koff (biotinylated NANPx6)	kon (biotinylated NANPx6)
B1	< 10 ng/mL	binds	binds	~100%	–	–	–	–
B2	< 10 ng/mL	binds	–	~100%	binds	–	–	–
B3	< 10 ng/mL	binds	binds	~100%	–	–	–	–
B4	< 10 ng/mL	binds	binds	~100%	–	–	–	–
B5	< 10 ng/mL	–	–	–	–	–	–	–
B6	–	–	–	–	–	7 nM	0.0002 s⁻¹	27000 M⁻¹ s⁻¹
B7	–	–	–	–	–	0.003 nM	–	–
B8	–	–	–	–	–	41 nM	0.0017 s⁻¹	40000 M⁻¹ s⁻¹
B9	–	–	–	–	–	51 nM	0.0045 s⁻¹	90000 M⁻¹ s⁻¹
B10	–	–	–	–	–	138 nM	0.056 s⁻¹	400000 M⁻¹ s⁻¹
